In patent US20140256621A1 (published 2014):

T1: chimeric Hu-Leptin/Mu-EPO receptor (human; mouse, UniProt P48357 22-839; P14753 250-507)
T1 sequence (looked up): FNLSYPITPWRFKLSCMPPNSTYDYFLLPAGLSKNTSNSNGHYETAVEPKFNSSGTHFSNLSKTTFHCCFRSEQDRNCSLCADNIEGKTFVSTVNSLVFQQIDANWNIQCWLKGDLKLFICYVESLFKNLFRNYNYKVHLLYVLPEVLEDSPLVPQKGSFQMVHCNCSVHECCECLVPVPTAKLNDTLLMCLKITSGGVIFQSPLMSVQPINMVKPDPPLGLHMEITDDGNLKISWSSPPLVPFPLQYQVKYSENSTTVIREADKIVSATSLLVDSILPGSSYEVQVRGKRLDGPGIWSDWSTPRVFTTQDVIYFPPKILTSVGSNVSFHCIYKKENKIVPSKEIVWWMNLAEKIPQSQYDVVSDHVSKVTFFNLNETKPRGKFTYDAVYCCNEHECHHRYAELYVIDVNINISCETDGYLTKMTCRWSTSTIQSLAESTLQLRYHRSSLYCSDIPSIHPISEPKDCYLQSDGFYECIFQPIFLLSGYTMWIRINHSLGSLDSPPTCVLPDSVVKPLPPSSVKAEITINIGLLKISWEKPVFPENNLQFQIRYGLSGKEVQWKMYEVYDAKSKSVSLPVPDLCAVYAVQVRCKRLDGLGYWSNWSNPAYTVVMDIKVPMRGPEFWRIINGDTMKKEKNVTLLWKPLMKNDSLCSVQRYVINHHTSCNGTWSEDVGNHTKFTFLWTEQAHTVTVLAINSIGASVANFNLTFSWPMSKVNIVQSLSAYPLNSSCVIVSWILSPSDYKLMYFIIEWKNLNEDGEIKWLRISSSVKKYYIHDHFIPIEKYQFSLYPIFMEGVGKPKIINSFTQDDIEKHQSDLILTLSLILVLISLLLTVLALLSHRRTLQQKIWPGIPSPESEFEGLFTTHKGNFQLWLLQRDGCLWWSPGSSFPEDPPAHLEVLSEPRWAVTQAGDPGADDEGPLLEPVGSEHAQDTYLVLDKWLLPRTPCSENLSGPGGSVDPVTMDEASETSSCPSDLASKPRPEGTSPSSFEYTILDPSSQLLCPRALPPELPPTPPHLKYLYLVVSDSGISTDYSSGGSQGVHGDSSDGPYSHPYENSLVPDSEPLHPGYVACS


Columns and labels:
[1] = molecular target: T1, chimeric Hu-Leptin/Mu-EPO receptor; experiment: cell-based or functional assay
Rat SA = molecular target: T2, Rat SA (rat, UniProt P02770 25-608); experiment: SPR (BioRad ProteOn XPR36), albumin amine-coupled on GLC chip, polypeptide injected from 5 nM in 3-fold dilutions, 25 C; relative KD
T2 construct: also called rat serum albumin
Protocol: (§1) All studies were conducted on a BioRad ProteOn XPR36 system using a GLC sensor chip at 25 degrees C. For amine coupling the GLC chip was activated for 5 minutes using a 1:1 mixture of sulfo-NHS/EDC diluted 30-fold from the initial stock in water as shown below. Each albumin sample was diluted to 25 ug/ml in 10 mM Na Acetate pH 5.0 and injected for 5 minutes over separate sensor surfaces. Each surface was then blocked with 1 M ethanolamine pH 8.5. Each albumin was coupled at a density of 2000-5000 in resonance units.
(§2) The binding of an engineered polypeptide was tested using 5 nM as the highest concentration in a three-fold dilution series. The running buffer contained 10 mM HEPES pH 7.4, 150 mM NaCl, 3 mM EDTA and 0.005% tween-20. All samples were tested using a 3-fold dilution series. Each concentration series was tested in duplicate. The dissociation phase for the highest concentration […] was monitored for 3 hours.

Monkey SA = molecular target: T3, Monkey SA (monkey); experiment: as above
T3 construct: also called monkey serum albumin
Protocol: as §1, §2

Dog SA = molecular target: T4, Dog SA (dog, UniProt P49822 25-608); experiment: as above
T4 construct: also called dog serum albumin
Protocol: as §1, §2

Mouse SA = molecular target: T5, Mouse SA (mouse, UniProt P07724 25-608); experiment: as above
T5 construct: also called mouse serum albumin
Protocol: as §1, §2

human serum albumin = molecular target: T6, human serum albumin (human, UniProt P02768 25-609); experiment: as above
T6 construct: also called HSA; Albucult (Novozyme)
Protocol: as §1, §2

T4 sequence (P49822 25-608 limits assumed): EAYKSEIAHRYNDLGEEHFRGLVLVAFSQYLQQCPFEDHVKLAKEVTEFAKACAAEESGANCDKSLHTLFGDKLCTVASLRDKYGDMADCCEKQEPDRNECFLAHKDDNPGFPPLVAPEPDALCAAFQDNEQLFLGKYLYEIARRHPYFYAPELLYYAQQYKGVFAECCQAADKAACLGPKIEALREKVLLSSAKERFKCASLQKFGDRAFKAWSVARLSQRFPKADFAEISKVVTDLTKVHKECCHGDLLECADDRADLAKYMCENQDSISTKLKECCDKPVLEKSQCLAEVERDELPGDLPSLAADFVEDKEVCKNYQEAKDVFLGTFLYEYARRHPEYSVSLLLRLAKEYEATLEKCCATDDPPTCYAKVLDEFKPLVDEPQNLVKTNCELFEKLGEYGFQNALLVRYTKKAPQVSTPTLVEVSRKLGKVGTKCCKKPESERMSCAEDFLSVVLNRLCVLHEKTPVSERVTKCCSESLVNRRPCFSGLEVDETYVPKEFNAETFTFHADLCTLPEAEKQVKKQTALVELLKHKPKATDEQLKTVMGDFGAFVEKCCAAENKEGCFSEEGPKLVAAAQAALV
T6 sequence (P02768 25-609 limits assumed): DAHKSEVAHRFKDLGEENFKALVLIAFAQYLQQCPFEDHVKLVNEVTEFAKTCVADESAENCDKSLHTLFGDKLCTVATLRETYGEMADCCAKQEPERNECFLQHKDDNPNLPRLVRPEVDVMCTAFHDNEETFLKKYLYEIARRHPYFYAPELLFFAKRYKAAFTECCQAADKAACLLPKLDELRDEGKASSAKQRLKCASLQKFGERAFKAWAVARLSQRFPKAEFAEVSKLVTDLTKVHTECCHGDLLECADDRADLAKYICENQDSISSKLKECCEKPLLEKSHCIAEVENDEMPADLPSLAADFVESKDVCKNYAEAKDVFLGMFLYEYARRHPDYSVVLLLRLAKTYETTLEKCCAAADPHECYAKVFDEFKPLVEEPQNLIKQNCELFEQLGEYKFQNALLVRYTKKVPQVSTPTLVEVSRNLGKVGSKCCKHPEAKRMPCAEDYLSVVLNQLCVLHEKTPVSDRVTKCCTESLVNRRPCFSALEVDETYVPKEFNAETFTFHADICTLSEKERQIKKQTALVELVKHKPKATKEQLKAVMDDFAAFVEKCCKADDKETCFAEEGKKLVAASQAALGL
T3 sequence (A2V9Z4 25-608): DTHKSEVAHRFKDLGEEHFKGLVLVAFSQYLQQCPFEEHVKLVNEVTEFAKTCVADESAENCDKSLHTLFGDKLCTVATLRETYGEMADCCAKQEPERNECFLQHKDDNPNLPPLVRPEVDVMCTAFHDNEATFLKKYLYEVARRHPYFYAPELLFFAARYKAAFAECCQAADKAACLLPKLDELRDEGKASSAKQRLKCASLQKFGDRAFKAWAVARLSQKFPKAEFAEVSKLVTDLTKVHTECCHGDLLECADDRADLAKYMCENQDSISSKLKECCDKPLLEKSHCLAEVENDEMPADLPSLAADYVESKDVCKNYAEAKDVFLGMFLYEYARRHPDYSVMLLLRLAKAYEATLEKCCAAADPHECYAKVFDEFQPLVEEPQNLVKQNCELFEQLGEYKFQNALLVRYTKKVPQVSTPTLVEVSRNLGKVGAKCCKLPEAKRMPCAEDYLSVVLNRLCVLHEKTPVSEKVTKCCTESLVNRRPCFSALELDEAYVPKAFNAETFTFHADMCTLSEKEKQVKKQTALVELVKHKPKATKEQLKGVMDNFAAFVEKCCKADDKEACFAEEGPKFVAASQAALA
T2 sequence (P02770 25-608 limits assumed): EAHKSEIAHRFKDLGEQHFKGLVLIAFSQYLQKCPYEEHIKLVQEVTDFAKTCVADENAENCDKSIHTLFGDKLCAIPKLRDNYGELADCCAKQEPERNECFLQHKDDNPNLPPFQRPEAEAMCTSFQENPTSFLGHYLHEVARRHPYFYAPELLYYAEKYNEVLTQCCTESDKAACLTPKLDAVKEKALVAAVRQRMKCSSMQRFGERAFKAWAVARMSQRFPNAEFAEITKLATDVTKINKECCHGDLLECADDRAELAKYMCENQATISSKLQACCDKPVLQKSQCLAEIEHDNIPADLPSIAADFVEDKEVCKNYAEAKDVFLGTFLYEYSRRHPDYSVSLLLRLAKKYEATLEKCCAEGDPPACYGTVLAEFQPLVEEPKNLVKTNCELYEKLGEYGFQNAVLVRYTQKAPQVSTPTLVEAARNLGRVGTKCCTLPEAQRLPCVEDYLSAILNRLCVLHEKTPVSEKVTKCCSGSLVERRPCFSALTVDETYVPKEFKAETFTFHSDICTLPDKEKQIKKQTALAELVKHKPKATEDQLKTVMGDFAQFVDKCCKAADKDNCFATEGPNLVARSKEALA

| EC50 nM (Obeca STAT5 assay) [1] [nM] | Binder | also measured |
| --- | --- | --- |
| 0.941 | Cmpd 70 (other) MGSLAEAKVLANRELDKYGVSDFYKRLIDKAKTVEGVEALKDAILAALPTGGEGGEGGEGGEGGEGGEASVPIQKVQDDTKTLIKTIVTRINDISHTQSVSSKQKVTGLEFIPGLHPILTLSKMDQTLAVYQQILTSMPSRNVIQISNDLENLRDLLHVLAFSKSCHLPQASGLETLESLGGVLEASGYSTEVVALSRLQGSLQDMLQQLDLSPGC |  |
| 0.832 | Cmpd 69 (other) MGSLAEAKVLANRELDKYGVSDFYKRLIEKAKTVEGVEALKEAILAALPTGGEGGEGGEGGEGGEGGEASVPIQKVQDDTKTLIKTIVTRINDISHTQSVSSKQKVTGLEFIPGLHPILTLSKMDQTLAVYQQILTSMPSRNVIQISNDLENLRDLLHVLAFSKSCHLPQASGLETLESLGGVLEASGYSTEVVALSRLQGSLQDMLQQLDLSPGC |  |
| 0.947 | PEP07986-negative linker-A500 (Compound 12) (other, also called Cmpd 12; PEP07986-Negative-A500) MGSLAEAKEAANAELDSYGVSDFYKRLIDKAKTVEGVEALKDAILAALPTGGEGGEGGEGGEGGEGGEASVPIQKVQDDTKTLIKTIVTRINDISHTQSVSSKQKVTGLEFIPGLHPILTLSKMDQTLAVYQQILTSMPSRNVIQISNDLENLRDLLHVLAFSKSCHLPQASGLETLESLGGVLEASGYSTEVVALSRLQGSLQDMLQQLDLSPGC | Kd (Rat SA): 0.01 nM; Kd (Monkey SA): 0.4 nM; Kd (Dog SA): 1.81 nM; Kd (Mouse SA): 1.94 nM; Kd (human serum albumin): 0.27 nM |
| 0.71 | Cmpd 68 (other) MLAEAKEAANAELDSYGVSDFYKRLIDKAKTVEGVEALKDAILAALPTGGGGSGGGSGGGSGGGSASVPIQKVQDDTKTLIKTIVTRINDISHTQSVSSKQKVTGLEFIPGLHPILTLSKMDQTLAVYQQILTSMPSRNVIQISNDLENLRDLLHVLAFSKSCHLPQASGLETLESLGGVLEASGYSTEVVALSRLQGSLQDMLQQLDLSPGC |  |
| 0.634 | Cmpd 64 (other) MLAEAKEAANAELDSYGVSDFYKRLIDKAKTVEGVEALKDAILAALPTGGGGSGGGSGGGSGGGSASPIQRVQDDTKTLIKTIITRINDISPPQGVSSRPRVAGLDFIPRVQSVRTLSGMDQILATYQQILTSLQSRNVIQISNDLENLRDLLHVLAFSKSCPVPRARGSDTIKGLGNVLRASVHSTEVVALSRLKAALQDMLRQLDRNPGC |  |
| 0.725 | PEP07986-neutral linker-A500 (Compound 2) (other, also called Cmpd 2; PEP07986-Neutral-A500) MGSLAEAKEAANAELDSYGVSDFYKRLIDKAKTVEGVEALKDAILAALPTGGGGSGGGSGGGSGGGSASVPIQKVQDDTKTLIKTIVTRINDISHTQSVSSKQKVTGLEFIPGLHPILTLSKMDQTLAVYQQILTSMPSRNVIQISNDLENLRDLLHVLAFSKSCHLPQASGLETLESLGGVLEASGYSTEVVALSRLQGSLQDMLQQLDLSPGC | Kd (Rat SA): 0.023 nM; Kd (Monkey SA): 0.405 nM; Kd (Dog SA): 1.31 nM; Kd (Mouse SA): 1.66 nM; Kd (human serum albumin): 0.152 nM |
| 1.26 | Cmpd 71 (other) MLAEAKEAANAELDSYGVSDFYKRLIDKAKTVEGVEALKDAILAALPTGGGGSGGGSGGGSGGGSASPIQRVQDDTKTLIKTIITRINDISHTQSVSSKQKVTGLDFIPGLHPILTLSGMDQILATYQQILTSLQSRNVIQISNDLENLRDLLHVLAFSKSCPVPRARGSDTIKGLGNVLRASVHSTEVVALSRLKAALQDMLRQLDRNPGC |  |

Further lines, the binder ahead of its results:

| Binder | EC50 nM (Obeca STAT5 assay) [1] [nM] | also measured |
| --- | --- | --- |
| Cmpd 1 (other) MGSLAEAKEAANAELDSYGVSDFYKRLIDKAKTVEGVEALKDAILAALPTGGGGASVPIQKVQDDTKTLIKTIVTRINDISHTQSVSSKQKVTGLEFIPGLHPILTLSKMDQTLAVYQQILTSMPSRNVIQISNDLENLRDLLHVLAFSKSCHLPQASGLETLESLGGVLEASGYSTEVVALSRLQGSLQDMLQQLDLSPGC | 0.908 |  |
| Cmpd 9 (other) MGSLAEAKEAANAELDSYGVSDFYKRLIDKAKTVEGVEALKDAILAALPTGGGGSGGGSGGGSGGGSASPIQRVQDDTKTLIKTIITRINDISPPQGVSSRPRVAGLDFIPRVQSVRTLSGMDQILATYQQILTSLQSRNVIQISNDLENLRDLLHVLAFSKSCPVPRARGSDTIKGLGNVLRASVHSTEVVALSRLKAALQDMLRQLDRNPGC | 0.433 |  |
| Cmpd 55 (other) MGSLAEAKVLANRELDKYGVSDFYKRLIDKAKTVEGVEALKDAILAALPTGGGGSGGGSGGGSGGGSASVPIQKVQDDTKTLIKTIVTRINDISHTQSVSSKQKVTGLEFIPGLHPILTLSKMDQTLAVYQQILTSMPSRNVIQISNDLENLRDLLHVLAFSKSCHLPQASGLETLESLGGVLEASGYSTEVVALSRLQGSLQDMLQQLDLSPGC | 0.639 |  |
| Cmpd 41 (other) MGSLAQAKEAANRELDSYGVSDFYKRLIDKAKTVEGVEALKDAILAALPTGGGGSGGGSGGGSGGGSASVPIQKVQDDTKTLIKTIVTRINDISHTQSVSSKQKVTGLEFIPGLHPILTLSKMDQTLAVYQQILTSMPSRNVIQISNDLENLRDLLHVLAFSKSCHLPQASGLETLESLGGVLEASGYSTEVVALSRLQGSLQDMLQQLDLSPGC | 0.506 |  |
| Cmpd 48 (other) MGSLAEAKEAANRELDAYGVSDFYKRLIDKAKTVEGVEALKDAILAALPTGGGGSGGGSGGGSGGGSASVPIQKVQDDTKTLIKTIVTRINDISHTQSVSSKQKVTGLEFIPGLHPILTLSKMDQTLAVYQQILTSMPSRNVIQISNDLENLRDLLHVLAFSKSCHLPQASGLETLESLGGVLEASGYSTEVVALSRLQGSLQDMLQQLDLSPGC | 0.553 |  |
| Cmpd 63 (printed with SEQ ID NO: 659 in Table X4) (other) MGSLAEAKEAANAELDSYGVSDFYKRLIDKAKTVEGVEALKDAILAALPTGGGGSGGGSGGGSGGGSASVPIQKVQDDTKTLIKTIVTRINDISHTQSVSSKQKVTGLEFIPGLHPILTLSKMDQTLAVYQQILTSMPSRNVIQISNDLENLRDLLHVLAFSKSCSLPQASGLETLESLGEVLEASGYSTEVVALSRLQGSLQDILQQLDLSPEC | 0.785 |  |
